According to patent US20260008815A1, “CYCLIC PEPTIDE OR SALT THEREOF, AND USES THEREOF” (FUJIFILM Corporation, priority 2023, published 2026):
Bridge positions count the residues as written; N and C are the ends. Ends that are not written are not given here. COCH2 = acetyl group that carries the bridge

molecular target: T1, Recombinant Human FGFR2 alpha (IIIc) Fc Chimera Protein, CF (R&D systems, 712-FR-050) (human, UniProt P21802 22-377); test: ELISA on plate-bound FGFR2-Fc
T1 construct: bought; not shown: Fc part of the chimera
T1 sequence (P21802 22-377, change not shown): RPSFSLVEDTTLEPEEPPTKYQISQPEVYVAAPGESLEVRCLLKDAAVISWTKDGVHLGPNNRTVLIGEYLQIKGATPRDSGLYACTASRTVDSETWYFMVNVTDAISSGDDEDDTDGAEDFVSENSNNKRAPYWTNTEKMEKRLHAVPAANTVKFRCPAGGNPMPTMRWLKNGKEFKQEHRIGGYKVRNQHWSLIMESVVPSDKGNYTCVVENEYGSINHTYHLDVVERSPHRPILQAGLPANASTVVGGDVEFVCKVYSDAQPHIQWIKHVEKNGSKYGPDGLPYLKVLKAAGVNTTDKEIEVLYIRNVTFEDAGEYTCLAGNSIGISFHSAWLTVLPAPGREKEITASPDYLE
Outline: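 Peptide binding scored by category from dose-response of background-corrected luminescence (FGFR-coated minus uncoated wells). Detection via anti-Myc antibody (2 h, room temperature) after 3 h peptide incubation on wells coated with 5 ng FGFR2 alpha (IIIc)-Fc.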

ELISA luminescence signal at 10 nmol/L peptide, relative to SEQ ID NO: 47 (=1) [ratio]	Binder
0.5 to 0.7	YCHENYLDPEQHQYFIYFK(COCH2)R (thioether 2-19) [cyclic peptide SEQ ID NO: 398]
0.5 to 0.7	ACEYNYWNQVQFTFLIAFK(COCH2)R (thioether 2-19 (inferred)) [cyclic peptide SEQ ID NO: 44]
≥ 0.7	TCPQNFRDELQFTYFTQYK(COCH2)Y (thioether 2-19 (inferred)) [cyclic peptide SEQ ID NO: 45]
0.5 to 0.7	SCIQQNYFWQYVFERYRYK(COCH2)Q (thioether 2-19 (inferred)) [cyclic peptide SEQ ID NO: 46]
≥ 0.7	QCPQNFINPVQWRYFQHYK(COCH2)N (thioether 2-19 (inferred)) [cyclic peptide SEQ ID NO: 80]
≥ 0.7	KCPQNFINPVQWRYFQHYKN (thioether ring (C)-(K(acetyl))) [cyclic peptide SEQ ID NO: 47]
≥ 0.7	ACPQNFINPVQWRYFQHYK(COCH2)N (thioether 2-19 (inferred)) [cyclic peptide SEQ ID NO: 53]
≥ 0.7	KCAQNFINPVQWRYFQHYKN (thioether ring (C)-(K(acetyl))) [cyclic peptide SEQ ID NO: 54]
≥ 0.7	KCPANFINPVQWRYFQHYKN (thioether ring (C)-(K(acetyl))) [cyclic peptide SEQ ID NO: 55]
0.1 to 0.5	KCPQAFINPVQWRYFQHYKN (thioether ring (C)-(K(acetyl))) [cyclic peptide SEQ ID NO: 56]
0.5 to 0.7	KCPQNAINPVQWRYFQHYKN (thioether ring (C)-(K(acetyl))) [cyclic peptide SEQ ID NO: 57]
0.5 to 0.7	KCPQNFANPVQWRYFQHYKN (thioether ring (C)-(K(acetyl))) [cyclic peptide SEQ ID NO: 58]
0.5 to 0.7	KCPQNFIAPVQWRYFQHYKN (not fully specified; thioether ring (C)-(K(acetyl))) [cyclic peptide SEQ ID NO: 59]
≥ 0.7	KCPQNFINAVQWRYFQHYKN (not fully specified; thioether ring (C)-(K(acetyl))) [cyclic peptide SEQ ID NO: 60]
≥ 0.7	KCPQNFINPAQWRYFQHYKN (not fully specified; thioether ring (C)-(K(acetyl))) [cyclic peptide SEQ ID NO: 61]
0.1 to 0.5	KCPQNFINPVQARYFQHYKN (not fully specified; thioether ring (C)-(K(acetyl))) [cyclic peptide SEQ ID NO: 62]
≥ 0.7	KCPQNFINPVQWAYFQHYKN (not fully specified; thioether ring (C)-(K(acetyl))) [cyclic peptide SEQ ID NO: 63]
0.5 to 0.7	KCPQNFINPVQWRAFQHYKN (not fully specified; thioether ring (C)-(K(acetyl))) [cyclic peptide SEQ ID NO: 64]
≥ 0.7	KCPQNFINPVQWRYFAHYKN (not fully specified; thioether ring (C)-(K(acetyl))) [cyclic peptide SEQ ID NO: 65]
≥ 0.7	KCPQNFINPVQWRYFQAYKN (not fully specified; thioether ring (C)-(K(acetyl))) [cyclic peptide SEQ ID NO: 66]
≥ 0.7	KCPQNFINPVQWRYFQHYKA (not fully specified; thioether ring (C)-(K(acetyl))) [cyclic peptide SEQ ID NO: 67]
≥ 0.7	GCPQNFINPVQWRYFQHYK(COCH2)N (thioether 2-19 (inferred)) [cyclic peptide SEQ ID NO: 71]
≥ 0.7	PCPQNFINPVQWRYFQHYK(COCH2)N (thioether 2-19 (inferred)) [cyclic peptide SEQ ID NO: 72]
≥ 0.7	LCPQNFINPVQWRYFQHYK(COCH2)N (thioether 2-19 (inferred)) [cyclic peptide SEQ ID NO: 73]

ELISA luminescence signal at 10 nmol/L peptide, relative to SEQ ID NO: 47 (=1) [ratio]	Binder
≥ 0.7	ICPQNFINPVQWRYFQHYK(COCH2)N (thioether 2-19 (inferred)) [cyclic peptide SEQ ID NO: 74]
≥ 0.7	VCPQNFINPVQWRYFQHYK(COCH2)N (thioether 2-19 (inferred)) [cyclic peptide SEQ ID NO: 75]
≥ 0.7	FCPQNFINPVQWRYFQHYK(COCH2)N (thioether 2-19 (inferred)) [cyclic peptide SEQ ID NO: 76]
≥ 0.7	YCPQNFINPVQWRYFQHYK(COCH2)N (thioether 2-19 (inferred)) [cyclic peptide SEQ ID NO: 77]
≥ 0.7	WCPQNFINPVQWRYFQHYK(COCH2)N (thioether 2-19 (inferred)) [cyclic peptide SEQ ID NO: 78]
≥ 0.7	NCPQNFINPVQWRYFQHYK(COCH2)N (thioether 2-19 (inferred)) [cyclic peptide SEQ ID NO: 79]
≥ 0.7	SCPQNFINPVQWRYFQHYK(COCH2)N (thioether 2-19 (inferred)) [cyclic peptide SEQ ID NO: 81]
≥ 0.7	TCPQNFINPVQWRYFQHYK(COCH2)N (thioether 2-19 (inferred)) [cyclic peptide SEQ ID NO: 82]
≥ 0.7	DCPQNFINPVQWRYFQHYK(COCH2)N (thioether 2-19 (inferred)) [cyclic peptide SEQ ID NO: 83]
≥ 0.7	ECPQNFINPVQWRYFQHYK(COCH2)N (thioether 2-19 (inferred)) [cyclic peptide SEQ ID NO: 84]
≥ 0.7	RCPQNFINPVQWRYFQHYK(COCH2)N (thioether 2-19 (inferred)) [cyclic peptide SEQ ID NO: 85]
≥ 0.7	HCPQNFINPVQWRYFQHYK(COCH2)N (thioether 2-19 (inferred)) [cyclic peptide SEQ ID NO: 86]
≥ 0.7	QCPQNFINPVHWRYFQHYK(COCH2)N (thioether 2-19 (inferred)) [cyclic peptide SEQ ID NO: 87]
≥ 0.7	QCPQNFINPVQWRYLQHYK(COCH2)N (thioether 2-19 (inferred)) [cyclic peptide SEQ ID NO: 88]
0.5 to 0.7	QCPQNFINPVQWRYYQHYK(COCH2)N (thioether 2-19 (inferred)) [cyclic peptide SEQ ID NO: 89]
0.1 to 0.5	QCPQNFINPVQWRYRQHYK(COCH2)N (thioether 2-19 (inferred)) [cyclic peptide SEQ ID NO: 90]
0.1 to 0.5	QCPQNFINPVQWRYFQHVK(COCH2)N (thioether 2-19) [cyclic peptide SEQ ID NO: 91]
≥ 0.7	QCPQNFINPVQWRYFQHFK(COCH2)N (thioether 2-19) [cyclic peptide SEQ ID NO: 92]
≥ 0.7	QCPQNFINPVQWRYFQHWK(COCH2)N (thioether 2-19) [cyclic peptide SEQ ID NO: 93]
0.1 to 0.5	QCPQNFINPVQWRYFQHSK(COCH2)N (thioether 2-19) [cyclic peptide SEQ ID NO: 94]
0.1 to 0.5	QCPQGFINPVQWRYFQHYK(COCH2)N (thioether 2-19) [cyclic peptide SEQ ID NO: 95]
0.1 to 0.5	QCPQYFINPVQWRYFQHYK(COCH2)N (thioether 2-19) [cyclic peptide SEQ ID NO: 96]
0.1 to 0.5	QCPQSFINPVQWRYFQHYK(COCH2)N (thioether 2-19) [cyclic peptide SEQ ID NO: 97]
0.1 to 0.5	QCPQTFINPVQWRYFQHYK(COCH2)N (thioether 2-19) [cyclic peptide SEQ ID NO: 98]
